To fix the notation:
B1: ALD6-1 promoter MXRE1 (dsDNA)
DNA 1: CCGCTCAACGGTTCTCCTCTACATCGTCCCTCTTTTGGAG
DNA 2: CTCCAAAAGAGGGACGATGTAGAGGAGAACCGTTGAGCGG
B2: MXRE1-M (dsDNA)
DNA 1: CCGCTCAACGGTTCTCATCTACATCGTCCCTCTTTTGGAG
DNA 2: CTCCAAAAGAGGGACGATGTAGATGAGAACCGTTGAGCGG
B3: ALD6-1 promoter MXRE2 (dsDNA)
DNA 1: CCGCACCCCCGAATTTTCACAAATTACCCCACACCCTATA
DNA 2: TATAGGGTGTGGGGTAATTTGTGAAAATTCGGGGGTGCGG
B4: MXRE2-M (dsDNA)
DNA 1: CCGCACCCCCGAATTTTCACAAATTACCCAACACCCTATA
DNA 2: TATAGGGTGTTGGGTAATTTGTGAAAATTCGGGGGTGCGG
B5: ALD6-1 promoter MXRE3 (dsDNA)
DNA 1: ACCCTATACTCCACCACTATGAGGGTTATTAGAACTGATC
DNA 2: GATCAGTTCTAATAACCCTCATAGTGGTGGAGTATAGGGT
B6: MXRE3-M (dsDNA)
DNA 1: ACCCTATACTCAACCACTATGAGGGTTATTAGAACTGATC
DNA 2: GATCAGTTCTAATAACCCTCATAGTGGTTGAGTATAGGGT

Consider six molecules from publication PMC8526985, “Characterization of the transactivation and nuclear localization functions of Pichia pastoris zinc finger transcription factor Mxr1p”.

This series has as its target T1, Mxr1pN150 (Pichia pastoris (Komagataella phaffii), UniProt C4R818 1-150).
T1 sequence: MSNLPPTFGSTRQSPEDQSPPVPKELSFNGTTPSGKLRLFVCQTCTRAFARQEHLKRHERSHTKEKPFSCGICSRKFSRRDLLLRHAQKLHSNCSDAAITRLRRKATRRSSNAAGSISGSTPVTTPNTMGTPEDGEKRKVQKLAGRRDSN
The experiment in a line: EMSA; EMSA conditions not given in the material. Particulars: protein: recombinant; (radiolabeled). In general terms: In EMSA bound probe runs differently from free probe, usually more slowly.
In the case of B1, the binding result is reported as “binds”. As for B2, the entry is “no binding”. As for B3, the entry is “binds”; as for B4, “no binding”; as for B5, “binds”.

In the case of B6, the binding result is recorded as “no binding”.
